Columns and labels:
[1] = target: wild-type green fluorescent protein (GFP) (Aequorea victoria) [GFP: P42212]; test: single-molecule photobleaching step counting and fluorescence intensity distribution (TIRFM); purified protein, 0.17 μg/mL solution, single spots imaged on the coverslip surface; 473-nm laser; self-association (monomer to dimer)
[2] = target: wild-type green fluorescent protein (GFP) (Aequorea victoria) [GFP: P42212]; test: single-molecule photobleaching step counting and fluorescence intensity distribution (TIRFM); purified protein, 0.57 μg/mL solution, single spots imaged on the coverslip surface; 473-nm laser; self-association (monomer to dimer)

percent of spots with one-step photobleaching (monomers) [1]: 96.5%
percent of spots with two-step photobleaching (dimers) [1]: 3.5%
stoichiometry N [1]: 2
percent of spots in the major intensity population (monomers) [2]: 97%
percent of spots with two-step photobleaching (dimers) [2]: 8.6%
Substance: wild-type green fluorescent protein (GFP) (from UniProt P42212 1-238) (natural protein)
